One block for each binder: values may come before it. 5‑acetamidofluorescein = fluorescein label from 5-iodoacetamidofluorescein attached at Cys
Key:
crystal structure = target: the molecule itself; test: crystal structure
MEF2A (1-95) [1] = target: T1, MEF2A (1-95) (UniProt Q02078 1-95); test: fluorescence polarisation
T1 sequence: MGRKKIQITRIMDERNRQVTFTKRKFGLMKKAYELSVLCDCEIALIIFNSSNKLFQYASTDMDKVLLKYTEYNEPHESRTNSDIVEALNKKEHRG

MEF2A (1-95) [2] = target: T1, MEF2A (1-95); test: SPR

B1: MEF2A (1-78) (domain or fragment)
chain: MGRKKIQITRIMDERNRQVTFTKRKFGLMKKAYELSVLCDCEIALIIFNSSNKLFQYASTDMDKVLLKYTEYNEPHES
binding result (crystal structure): binds

binding result (MEF2A (1-95) [1]): binds
B2: HDAC4 fragment (AA 155-218) labeled by 5-Iodoacetamidofluorescein via Cys194 (domain or fragment, UniProt P56524 155-218, looked up)
chain: LKNKEKGKESAVASTEVKMKLQEFVLNKKKALAHRNLNHC(5‑acetamidofluorescein)ISSDPRYWYGKTQHSSLDQSSPPQ

binding result (MEF2A (1-95) [2]): binds
B3: HDAC4 (AA 155-220) (domain or fragment)
chain: LKNKEKGKESAVASTEVKMKLQEFVLNKKKALAHRNLNHCISSDPRYWYGKTQHSSLDQSSPPQSG

— paper PMC3384312 (Nucleic Acids Research, 2012)
